Source: patent EP1986009A1

Molecular target: Recombinant human RAGE/Fc chimera (R&D Systems cat. No. 1145-RG) (human)
Experiment: SPR (Biacore), 200 nM protein over immobilized RAGE/Fc, Req or late association response

Chain of Recombinant human RAGE/Fc chimera (R&D Systems cat. No. 1145-RG) (human) (Q15109 23-344, change not shown, form in doubt): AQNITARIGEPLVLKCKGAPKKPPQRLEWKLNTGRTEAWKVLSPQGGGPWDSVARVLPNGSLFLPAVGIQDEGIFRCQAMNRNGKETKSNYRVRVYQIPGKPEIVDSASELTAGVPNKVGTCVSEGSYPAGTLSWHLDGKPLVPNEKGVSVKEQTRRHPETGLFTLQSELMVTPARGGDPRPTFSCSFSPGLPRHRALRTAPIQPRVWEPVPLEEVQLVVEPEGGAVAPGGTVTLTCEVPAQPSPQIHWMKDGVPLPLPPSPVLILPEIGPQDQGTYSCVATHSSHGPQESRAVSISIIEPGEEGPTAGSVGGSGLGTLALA

fold higher binding than the next group of RAGE binders (AnxII, S100A12, and S100A8/9): > 10 fold
Substance: Recombinant S100A9, expressed as the full-length sequence of native protein in E. coli (ligand)
